Results: patent US11214774B2, “PINK1 C-terminal domain polypeptide and methods using the same in cancer treatment” (National Taiwan University, priority 2015, dated 2022)
Each block holds one molecule with its values, some of them ahead of it.

Legend:
[1] = test system: EGFR; test: EGFR dimerization assay under PINK1-CTD overexpression; assay type: cell-based; conditions: CL1-5, PC9, H1975 and H3255 cells (FIG. 9A)
[2] = test system: CL1-5, PC9, H1975 and H3255 cells; test: Tumor xenografts of PINK1-CTD stably expressing lung cancer cells; assay type: in vivo; conditions: CL1-5, PC9, H1975 and H3255 xenografts (FIGS. 6B, 6E, 6H, 6K)
Source text: FIGS. 6A-6L show tumor xenografts of shPINK1, PINK1 and PINK1-CTD stably expressing lung cancer cells. FIGs. A, D, G and J: PINK1 overexpression aggravated tumor growth in CL1-5 cells but suppressed tumor growth in PC9, H1975 and H3255 cells; FIGs. B, E, H and K: PINK1-CTD overexpression inhibited tumor growth in all cells tested; FIGs. C, F, I and L: PINK1 knockdown inhibited tumor growth in CL1-5 cells but promoted tumor growth in PC9, H1975 and H3255 cells. N=7 in each group.
(§1) It was next investigated the in vivo tumor growth of PINK1-CTD stably expressing CL1-5, PC9, H1975 and H3255 cells. It has been shown that PINK1-CTD inhibits EGFR activation. It not only downregulates EGFR downstream signaling in EGFR-addicted PC9, H1975 and H3255 cells but also attenuates STATS-Y705 phosphorylation in EGFR non-addicted CL1-5 cells (FIGS. 9A and 9B). […] In addition, the synthetic polypeptide PINK1-CTD (Genmedkia Biotechnology Corp.) was used in mouse xenograft model. 2 μM of CTD polypeptide or R9 peptide (as control group) was injected into the mouse every day or every two days (as shown by arrow in FIGS. 11A and 11B).

[3] = test system: EGFR pathway; test: Immunoblotting of EGFR pathway under PINK1-CTD overexpression; assay type: cell-based
Source text: FIGS. 9A and 9B show hindrance of PINK1-CTD to EGFR dimerization and activation.
as §1

[4] = test system: EGFR-TKD (amino acids 645-954); test: In vitro GST pull-down assay; assay type: binding; conditions: recombinant GST-fused PINK1-CTD incubated with purified His-tagged EGFR-TKD; anti-His immunoblot (FIG. 3E)
Source text: To dissect the interaction between PINK1 and EGFR, it was next investigated whether these two protein kinases interact directly and through which domains they interplay. It was established a flag-fused full-length EGFR construct, EGFR-flag, (amino acids 1-1210) and 8 serial truncated EGFR-flag constructs based on different EGFR functional domains (amino acids 1-378, 1-621, 1-644, 1-690, 1-954, 645-1210, 645-954, 955-1210) (FIG. 3A). Each of these 9 constructs was co-overexpressed with full-length PINK1 in HEK293 cells. The cell lysates were immunoprecipitated by anti-flag antibody and the immunoprecipitates were immunoblotted by PINK1 antibody. […] It was simultaneously established a myc-fused full-length PINK1 construct and another 7 truncated PINK1-myc constructs containing amino acids 1-509, 1-155, 156-509, 156-309, 310-428, 429-581 and 78-581, respectively (FIG. 3C). Each of these 8 constructs was co-transfected with full-length EGFR-flag in HEK293 cells. The cell lysates were immunoprecipitated by anti-myc antibody and immunoblotted with anti-flag antibody. […] Recombinant GST-fused PINK1-CTD (amino acids 510-581) and negative-control construct GST-fused PINK1310-428 (amino acids 310-428) were individually incubated with purified His-tagged EGFR-TKD (amino acids 645-954) and analyzed by immunoblotting with anti-His antibody (FIG. 3E). […]

[5] = biological target: T1, HER2 (Homo sapiens, UniProt P04626); test: HER2 phosphorylation in CL1-5 cells co-cultured with CTD polypeptide; assay type: cell-based; conditions: CL1-5 cell (FIG. 5B)
T1 construct: endogenous in cells; host or cells: CL1-5 cells
Source text: (§2) R9: a peptide consisting of 9 arginine residues.
(§3) To determine the interaction between PINK1-CTD and HER1 or HER2, PINK1-CTD polypeptide was co-cultured with CL1-5, HOP62, PC9 or H1975 cells. In this example, the used PINK1-CTD was synthesized from Genmedkia Biotechnology Corp., and it was conjugated with 9 arginine residues for membrane attaching and internalization. The group in which the cells were co-cultured with a peptide only having 9 arginine residues (R9) was used as control group.

[6] = test system: H1975; test: H1975 lung cancer mouse xenograft model, CTD treatment; assay type: in vivo; conditions: 2 μM injected every day or every two days, vs R9 (FIG. 11B)
Source text: as §2, §1

[7] = test system: H1975; test: In vitro MTT assay, H1975; assay type: cell-based; conditions: 2 μM (FIG. 11C)
[8] = test system: Hop62; test: In vitro MTT assay, Hop62; assay type: cell-based; conditions: 2 μM (FIG. 11C)
[9] = test system: CL1-5; test: In vitro MTT assay, CL1-5; assay type: cell-based; conditions: 2 μM (FIG. 11C)
[10] = test system: CL1-5; test: CL1-5 lung cancer mouse xenograft model, CTD treatment; assay type: in vivo; conditions: CL1-5 xenograft; 2 μM injected every day or every two days; vs R9 (FIG. 11A)
Source text: as §2, §1

[11] = biological target: T2, EGFR (HER1) (Homo sapiens, UniProt P00533); test: EGFR (HER1) phosphorylation in lung cancer cells co-cultured with CTD polypeptide; assay type: cell-based; conditions: 2 μM, vs R9 control (FIG. 5A)
T2 construct: endogenous in cells; host or cells: CL1-5, HOP62, PC9, H1975 lung cancer cells
Source text: as §2, §3

[12] = test system: EGFR (HER1); test: as above; assay type: cell-based; conditions: PC9 cells; 2 μM; vs R9 control (FIG. 5A)
Source text: as §2, §3

[13] = biological target: T3, EGFR (HER1) (Homo sapiens, UniProt P00533, L858R/T790M); test: as above; assay type: cell-based; conditions: H1975 cells; 2 μM; vs R9 control (FIG. 5A)
T3 construct: endogenous in cells; host or cells: CL1-5, HOP62, PC9, H1975 lung cancer cells
Source text: as §2, §3

[14] = test system: PC9; test: In vitro MTT assay, PC9; assay type: cell-based; conditions: 2 μM (FIG. 11C)

B1: PINK1-CTD: PINK1 C-terminal domain, amino acids 510 to 581 of PINK1 (SEQ ID NO: 1); overexpressed / stably expressed in cells (protein, listed as Homo sapiens)
chain: SLWGEHILALKNLKLDKMVGWLLQQSAATLLANRLTEKCCVETKMKMLFLANLECETLCQAALLLCSWRAAL
- EGFR dimer to monomer ratio [1]: a decrease in EGFR dimer to monomer ratio
- in vivo tumor growth of PINK1-CTD stably expressing cells [2]: exerted inhibitory effects in all the cells tested
- EGFR downstream signaling ([3]; EGFR-addicted PC9, H1975 and H3255 cells (FIG. 9B)): concurrently downregulated
- phosphorylated EGFR-Y1068 to total EGFR ratio ([3]; all cells analyzed (FIG. 9B)): a decrease in phosphorylated EGFR-Y1068 to total EGFR ratio
- STAT3-Y705 phosphorylation ([3]; wild-type EGFR CL1-5 cells (FIG. 9B)): only a decrease in STAT3-Y705 phosphorylation

- direct binding to EGFR-TKD [4]: directly bound to EGFR-TKD
B2: GST-fused PINK1-CTD: Recombinant GST-fused PINK1 C-terminal domain, amino acids 510-581 of PINK1 (protein)
chain: SLWGEHILALKNLKLDKMVGWLLQQSAATLLANRLTEKCCVETKMKMLFLANLECETLCQAALLLCSWRAAL
modifications: left off: a dimerising Fc or GST
notes: Recombinant GST-fused PINK1 C-terminal domain, amino acids 510-581 of PINK1

- EGFR (HER1) phosphorylation ([11]; CL1-5 cells): effectively inhibited
- EGFR (HER1) phosphorylation ([11]; HOP62 cells): effectively inhibited
- EGFR (HER1) phosphorylation [13]: effectively inhibited
B3: CTD polypeptide: Synthesized PINK1-CTD (Genmedkia Biotechnology Corp.), conjugated with 9 arginine residues for membrane attaching and internalization (peptide)
peptide: SLWGEHILALKNLKLDKMVGWLLQQSAATLLANRLTEKCCVETKMKMLFLANLECETLCQAALLLCSWRAALRRRRRRRRR
- HER2 phosphorylation [5]: inhibited HER2 phosphorylation in CL1-5 cell in a dose-dependent manner
- in vivo tumor growth [6]: inhibited in vivo tumor growth
- cell viability (MTT) [7]: reduced
- cell viability (MTT) [8]: reduced
- cell viability (MTT) [9]: reduced
- in vivo tumor growth [10]: inhibited in vivo tumor growth
- EGFR (HER1) phosphorylation [12]: effectively inhibited
- cell viability (MTT) [14]: reduced
